In the DeepSol protein solubility set:

Test: soluble on expression in E. coli; label from the status in PepcDB or PDB records

| Sequence | soluble on expression in E. coli |
| --- | --- |
| MAGISIGVGSTDYTDLVNKMVNLEGAAKTNQLATLEKTTTTRLTALGQFKSAISAFQTALTALNSNAVFMARTAKSSNEDILKASATQSAVAGTYQIQVNSLATSSKIALQAIADPANAKFNSGTLNISVGDTKLPAITVDSSNNTLAGMRDAINQAGKEAGVSATIITDNSGSRLVLSSTKTGDGKDIKVEVSDDGSGGNTSLSQLAFDPATAPKLSDGAAAGYVTKAANGEITVDGLKRSIASNSVSDVIDGVSFDVKAVTEAGKPITLTVSRDDAGVKDNVKKFVEAYNTLTKFINEQTVVTKVGEDKNPVTGALLGDASVRALVNTMRSELIASNENGSVRNLAALGITTTKDGTLEIDEKKLDKAISADFEGVASYFTGDTGLAKRLGDKMKPYTDAQGILDQRTTTLQKTLSNVDTQKADLAKRLAALQEKLTTQFNLLSAMQDEMTKRQKSITDNLASLPYGSGKKT | not soluble |
| MAGQEDPVQREIHQDWANREYIEVITSSIKKIADFLNSFDMSCRSRLATLNEKLTALERRIEYIEARVTKGETLT | soluble |
| MAGTVEGEKIDVGFAGKRCIHSRNCVLGDPHVFVPNAPGQWIHPDAASVEKIVAIAESCPSGAITYVRKDGGPQEQPPVVNTVRLRENGPLAVHAEIVLDGETFYRATLCRCGASENKPFCDGSHGKAGFTATGEPALKDAPALEARNGPLKVTPTTNGPLKLEGNVEIVTGTGHTIDRTQRTFLCRCGHSANKPFCDGSHKKIGFVA | not soluble |
| MAHHHHHHERASLITTGPYGHQSGAVYVGNYKVVNRHLATHVDWQNCVWEDYNRDLLVSTTTAHGCDTIARCQCTTGVYFCASKSKHYPVSFEGPGLVEVQESEYYPKRYQSHVLLATGFSEPGDAGGILRCEHGVIGLVTMGGEGVVGFADVRDLLWLEDDAMEQ | soluble |
| MAHHHHHHKNTAKTAPNHDRIKNLIAKLNNSKDEDKKKNSPNGQINRTGDVYAKNELINKKKKHINFETFLRIFLETYEEPLSVDELITSFEFFDKEKSGYLDEEKVRFILKNSEERLADEDMKLFLNSLNLRDKDKIDYVMLAKRLKNVA | soluble |
| MAHHHHHHMAAGSAEEAVALMKSAEKHSQKKFFKRPDWDAAASEYERAARIYTHLEDTNRATDAWRKASGAHQNAENNFFAARAMESLAVFLTEQSRKGMADDTSLLNNAVESYCDASKLYAFNEMFDRQADCLKKAAEIINPTKTIVTGLPATEAGSSQVKQRMQQVVGLFREGVSVLEEHIEDKPVVAVQLSELYRNWMLTHLHNGDVKGAVEVLEEQLGIRADPHKKGVFERLAQPHNSAKAGLEITVLCLSCGDDVWARQEMNKLRGVPGFSTSNEEATANALISSFEERDEEQLRAAMKNQTLQFITIDISRMSRKLKIQFSAPQRTNMTSSSLPNPSLPNEQQQGEEQQEADIDPEEDIR | not soluble |
| MAHHHHHHMADRGDARVVHVFVDDLSAVLAEDVHEWLRIIGDIDELKMRYDASRQRSFYWVRFHQSSAARLAVDHLDGERLKNHAIEIHSNVFKKQTAAVATLEGAAGGVQEEKTKLEMNPNLPKNHLMPRDLQMDELLVRAIPEMLETSEQAAEGGELLQRLLELQESYCRAQESLERTTEGIRETDGELTALLRGETTAATDVSGPSSEGFVQGNTPLASARIRNAVPVPLSTCDPAGLLSKLTRHVGPVADYAFSFASNGGSFATVVELFHPDDADFALALLTGRRMVSKSTEKHADAEDALAALVGFGWEAEASVAPLTPPSVPQASFAAHNRVATILRSCRSVA | not soluble |
| MAHHHHHHMAEIHQDKTESAVSSSGILKNVVRHSPKVSSKEIEDSEIRIVKMAHEEENRKLQKMGKCAKDYTLPCPKFWKKKIMNKSENICIASSSYNGFCTPRQSFDNFTKSEKMKFETSCNVEWGCRNVVADACESGKRNYNEPCPEGFISQNDNTCMADLTVYDGLCNGQKIDFTHLTNDEKQNWSVACEAYWPCYIDCSLNNKALSTCPSNWKEINSYECIPPYSYNGPCKDTKNFKFFNELMKKKFEEKCKVTFVCTDLCEKNYRQECPLHWMKEGGYCLAPPSFNLCDRKKYLYSNLTQEEEKKKFEQECSVQWPCQKTSFCDMDWTAECPLNWVKEVPRQGRDQEGGDKYICTADSSLYRGRCAFISLPNGADEETKRELASTCDTPWPCSATGATAGAPEEGGPVPRSDSKIVERRNSAFTNGPVTFQGDVRTNGGPTYRVVDSQGDVSLADIMR | not soluble |
| MAHHHHHHMAFAGSNDVLKVQKMLQVLVEKRSDKKVNMDGSAKPTDQPHHPAPCGNAVDGKAPQGADAKGPLLDGKRANPTLGSSKSAKTGPAD | not soluble |
| MAHHHHHHMAFNQRFDRGAQPSYAAVQLPPGWQMAYSVEGEVYYIDHNTRTTHWKIPQEVLNEMYHQGQTYRPSRSRRGIDRSKMKTKMCMNIQNGGKCTWGNACAFAHSSEELAAVPHNGGGQRMRMDPGAHQGNDNGLDNNHLQQ | soluble |
| MAHHHHHHMAKDNKGKVKKAAGEETVKYYRVKGKKKILIPVKAKKTIAKKYYGRKLASKKKYIVQGKMRKSIEVGKVAIILSGKHMGKRCIITKVLTSGLLAVVGPYEVNGVPLKRVNPRYVVVTSTNIFKFENMAGLKDEFVKLAEQIEDNSFVKSLEIKKKQKKLLSKKNEGLFMNDVITKIKELMKEDPKMQQLQKIQKEIGTLLKDEIAKNKIFAEYLKSKFTLRNDMALHKMKF | not soluble |
| MAHHHHHHMALLEWARQDATMKSSLELYCGPASKDLMIMDIPANVAVDAYLWEGLLVAESMLEADGTLLVVSPHAFSVRVRRFLQWRFLRAQCAVSEAGAVHYAVCSTVAAGFGDAAVRRDDFPGQLATGKRRPCKWNPYRRPEKRKFVASLRPWFTNAPFVKDALRCSLERERDAQERLRDADDAFFAVAHEMVEKGVHYSHPND | not soluble |
| MAHHHHHHMALYIIGLGLGDERDVSVRGKELIEMSDVVYLESYTSVLFVSKNALEEFYKKNIKEVDRNFAEENCEEILEEAVNKKVSFLVVGDPLCATTHHDIILRAKKKNINVQVIHNASIMSAIGESGMQLYNFGQTVSIPYFEETYKPTSFYDKIKVNLDNNFHTLCLLDIKVKERTIENLMKNKNIYEPPRYMTINEAIEQLLYCEEVHKKNVITDNTRGIAIVRIGSNSQQIVSGNLLTLKTIKYNDPLHSLIICAPTLHDVEREYFDMYMHK | not soluble |
| MAHHHHHHMAPPSSSACDPRVYLHERVRQHYLEVLPSRWRAVLFRLAKNTQLRQKNDVIVETHLLSEMQADFDLIHALLDEEHRVYREGVACLCSQASNGKSETERWTASRHLLQGMLSCIAMKEILIAHWKNDLVDISPNTLRVYCHACISHPHVSETDIERLLALYAVS | not soluble |
| MAHHHHHHMAQRVAIPDDCVYEGYGNLYRGDAEVTPPQPIVGARGGNGVLYGTIDSEEALRQLRTALRVDVHPQLKALVQEKKLDEVASSPASLPWLVCRPNALPLRTLPSSFSSGTRYEIERMKSQCRFLRDWLMCHETPEERVEAREFLRTAQRLLQKESVEELLGRTENLLQQLENWPAVVEKARPHIAEWNNDKSLTELREFVGDVLGTDEVCARLSKLTCRFSLLAPLLEEAAFRSAALEEMEQWSSEATVSSLRSLRASIHDWELRVAKDQQNVLDSSQLLLERIAAVRNKRRESAGDLT | soluble |
| MAHHHHHHMARIISASELEKAADALARGNLVAIPTETVYGLGGNALNKEAVEKIFIVKGRPLTDPLICHVSDVEKAMDLWDVHADPEAVELARVLGTAIWPGPLTIVLRANPLLPNSVTGGSGFVGARIPRHEITLRLLQLVNFPVAAPSANTFGHVSPTTADHVLKDLGPKDSSLLIVDGGPCDIGIESTVVKVNNVESVEILRRGGVTLTEVLRALGDKFHPLITIRDTRLRHLSPEMAMDGPGQLLTHYSPNVPSRLLTPSSFTTNLPMDPEGALVEFSSNSSVAAPTEVLLRHTVIIDFGGKLQCLKPGCLAYRDLSVNAQVREACFAVFDALRWTETIPGAEVVLFPLVSGWPHASVDTDLLAAVEDRLFRAASGKVARIRMQSRSV | not soluble |
| MAHHHHHHMARIPPLVVCGPSGVGKGTLIKKVLSEFPSRFRFSISCTTRNKREKETNGVDYYFVDKDDFERKLKEGQFLEFDKYANNFYGTLKSEYDLAVGEGKICLFEMNINGVKQLKESKHIQDGIYIFVKPPSIDILLGRLKNRNTEKPEEINKRMQELTREMDEADKVGFNYFIVNDDLARTYAELREYLLGSYPQLRGG | soluble |
